Our source for the SPOT signal as a fraction of Bim BH3's signal on the same receptor and array, Kd and percent of the Bim BH3 SPOT signal values is paper PMC4072508, “Genome-Wide Prediction and Validation of Peptides That Bind Human Prosurvival Bcl-2 Proteins” (PLoS Computational Biology, 2014).

Several values for one entry are separate records, joined by “and”; a condition that tells them apart may be missing. Equal entries are not always repeated.

One test deals with Bcl-w (UniProt Q92843). As to the kind of experiment: peptide SPOT array, c-Myc-tagged receptor at 1 uM or 100 nM, anti-c-Myc-Cy3.
Chain of Bcl-w (Q92843 1-164 Q133R): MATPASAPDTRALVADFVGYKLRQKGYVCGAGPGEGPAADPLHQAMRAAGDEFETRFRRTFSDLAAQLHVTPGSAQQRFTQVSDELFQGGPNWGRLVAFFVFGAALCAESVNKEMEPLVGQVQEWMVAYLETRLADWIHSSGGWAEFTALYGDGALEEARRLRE
In test [1] the target is Bfl-1 (UniProt Q16548). The test is described as above.
Target sequence in this assay (Q16548 1-151): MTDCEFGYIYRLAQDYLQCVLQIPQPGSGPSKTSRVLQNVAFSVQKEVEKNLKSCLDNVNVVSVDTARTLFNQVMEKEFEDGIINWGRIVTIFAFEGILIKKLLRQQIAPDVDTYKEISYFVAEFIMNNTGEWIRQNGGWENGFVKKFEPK
For test [2], the target named is Bcl-2 (UniProt P10415). The description is as above.
Target sequence in this assay (P10415 1-217): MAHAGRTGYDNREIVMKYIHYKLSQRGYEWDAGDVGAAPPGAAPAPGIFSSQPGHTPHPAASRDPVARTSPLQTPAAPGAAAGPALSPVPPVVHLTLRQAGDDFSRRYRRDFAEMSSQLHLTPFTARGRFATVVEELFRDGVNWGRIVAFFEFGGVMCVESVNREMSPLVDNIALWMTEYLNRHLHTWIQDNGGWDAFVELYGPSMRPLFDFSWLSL
Test [3] concerns the target Mcl-1 (UniProt Q07820). The description is as above.
Target sequence in this assay (Q07820 172-327): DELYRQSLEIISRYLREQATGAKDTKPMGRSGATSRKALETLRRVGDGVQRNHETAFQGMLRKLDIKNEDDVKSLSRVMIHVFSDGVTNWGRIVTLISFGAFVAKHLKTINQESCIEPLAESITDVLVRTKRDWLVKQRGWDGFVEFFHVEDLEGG
The next test addresses Bcl-xL (UniProt Q07817). Described as above.
Test [4] has as its target PXT1 BH3-like peptide (human). As to the kind of experiment: fluorescence polarisation; direct binding: 10 nM FAM-labeled peptide, receptor serially diluted; 25°C; 20 mM NaPO4, 50 mM NaCl, 1 mM EDTA, 0.001% Triton X, pH 7.8; single-site binding model. Background: In fluorescence polarisation assays a small probe gives low polarisation when free and higher when bound to something large.

Test [5] deals with peptide based on the putative BH3 motif in Aven (human). As to the kind of experiment: peptide or protein array; peptide SPOT arrays on nitrocellulose membranes; 1 µM or 100 nM c-Myc-tagged receptor in TBS (50 mM Tris, pH 8.1, 100 mM NaCl, 0.01% Triton X-100), 1 h, room temperature; detected with anti-c-myc-Cy3; signal given as percent of the Bim BH3 signal.
For test [6], the target named is Mcl-1 (UniProt Q07820). The note with it: cited from earlier work.
Target sequence in this assay (Q07820 whole entry): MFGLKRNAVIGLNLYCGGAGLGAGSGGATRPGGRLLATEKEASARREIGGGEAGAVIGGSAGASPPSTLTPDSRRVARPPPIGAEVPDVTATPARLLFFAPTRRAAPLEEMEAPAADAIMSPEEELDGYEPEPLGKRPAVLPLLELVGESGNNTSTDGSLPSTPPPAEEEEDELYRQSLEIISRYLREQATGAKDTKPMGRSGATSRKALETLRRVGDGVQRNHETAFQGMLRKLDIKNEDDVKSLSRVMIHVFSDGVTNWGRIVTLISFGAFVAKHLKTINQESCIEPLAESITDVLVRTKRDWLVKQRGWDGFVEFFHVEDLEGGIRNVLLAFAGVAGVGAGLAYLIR
In test [7] the target is Bfl-1 (UniProt Q16548). The note with it: cited from earlier work.
Target sequence in this assay (Q16548 whole entry): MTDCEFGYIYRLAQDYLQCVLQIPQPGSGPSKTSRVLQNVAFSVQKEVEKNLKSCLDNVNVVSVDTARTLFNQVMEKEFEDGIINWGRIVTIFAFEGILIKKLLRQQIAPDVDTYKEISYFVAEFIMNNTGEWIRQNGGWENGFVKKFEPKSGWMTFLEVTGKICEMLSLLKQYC
Test [8] deals with Bcl-2 (UniProt P10415). Nature of the test: fluorescence polarisation; binding assay in solution; direct or competition not told for this peptide (MRPL41 was unlabeled in Figure S2).
Target sequence in this assay (P10415 whole entry): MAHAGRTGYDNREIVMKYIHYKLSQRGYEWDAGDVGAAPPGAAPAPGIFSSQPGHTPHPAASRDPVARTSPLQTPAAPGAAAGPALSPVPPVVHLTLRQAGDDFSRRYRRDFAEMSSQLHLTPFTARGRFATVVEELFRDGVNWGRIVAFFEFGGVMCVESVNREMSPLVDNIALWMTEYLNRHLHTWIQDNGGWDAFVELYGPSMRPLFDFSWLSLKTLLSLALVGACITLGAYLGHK

Chain of BCL2L15 (chain, as listed by the source): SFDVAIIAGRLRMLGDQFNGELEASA
Chain of TSC2 (chain, as listed by the source): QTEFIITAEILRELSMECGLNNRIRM
Chain of Bcl-xL (UniProt Q07817) (Q07817 1-209): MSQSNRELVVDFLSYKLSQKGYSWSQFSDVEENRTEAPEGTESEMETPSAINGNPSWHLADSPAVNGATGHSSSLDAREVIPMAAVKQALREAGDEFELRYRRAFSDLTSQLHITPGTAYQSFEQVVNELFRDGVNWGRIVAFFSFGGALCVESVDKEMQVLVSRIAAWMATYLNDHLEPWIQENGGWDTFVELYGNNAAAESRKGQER
Chain of Bad BH3 peptide BH3 (Q92934 103-127): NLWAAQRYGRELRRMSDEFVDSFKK
Chain of PSMB1 (chain, as listed by the source): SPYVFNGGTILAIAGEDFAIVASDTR
Chain of ATP2B1 (chain, as listed by the source): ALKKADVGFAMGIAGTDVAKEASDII
Chain of Bcl-xL (from UniProt Q07817-1 1-233) (natural protein) (Q07817 whole entry): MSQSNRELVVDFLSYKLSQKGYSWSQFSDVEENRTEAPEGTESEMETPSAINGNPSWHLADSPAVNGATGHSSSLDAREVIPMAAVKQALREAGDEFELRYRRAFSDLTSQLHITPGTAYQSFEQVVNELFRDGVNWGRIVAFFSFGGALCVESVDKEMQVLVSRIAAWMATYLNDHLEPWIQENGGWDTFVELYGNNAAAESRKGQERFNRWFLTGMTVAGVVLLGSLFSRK
Chain of C7orf16 (chain, as listed by the source): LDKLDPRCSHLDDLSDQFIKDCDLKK
Chain of Mcl-1 (from UniProt Q07820 1-350) (natural protein) (Q07820 whole entry): as the sequence (Q07820 whole entry) above
Chain of GRIN2D (chain, as listed by the source): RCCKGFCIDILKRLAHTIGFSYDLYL
Chain of EIF2C3 (chain, as listed by the source): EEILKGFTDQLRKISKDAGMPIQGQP
Chain of Bcl-2 (from UniProt P10415 1-239) (natural protein) (P10415 whole entry): as the sequence (P10415 whole entry) above
Chain of ARPC5L (chain, as listed by the source): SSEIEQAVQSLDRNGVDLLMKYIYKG
Chain of GRIN3A (chain, as listed by the source): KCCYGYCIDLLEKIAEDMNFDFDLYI
Chain of EHMT1 (chain, as listed by the source): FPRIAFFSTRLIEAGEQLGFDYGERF
Chain of EIF2C1 (chain, as listed by the source): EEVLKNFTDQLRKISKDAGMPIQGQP
Chain of MYO3A (chain, as listed by the source): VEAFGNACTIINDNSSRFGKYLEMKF
Chain of PACSIN2 (chain, as listed by the source): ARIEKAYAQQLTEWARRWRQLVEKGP

As to BCL2L15, the figures for the SPOT signal as a fraction of Bim BH3's signal on the same receptor and array in the test with Bcl-w, in the test with Bfl-1 [1] and with Bcl-2 [2] were 0.58, 0.52 and 0.75, respectively. As for VPS29, the SPOT signal as a fraction of Bim BH3's signal on the same receptor and array with Mcl-1 [3] is 0.02; in the test with Bcl-xL, 0.02 and 0.01. For KIF5C, the SPOT signal as a fraction of Bim BH3's signal on the same receptor and array with Mcl-1 [3] was 0.07 and 0.16. In the test with Mcl-1 [3], GRIN3A gave an SPOT signal as a fraction of Bim BH3's signal on the same receptor and array of 0.03. In turn, C7orf16 displayed an SPOT signal as a fraction of Bim BH3's signal on the same receptor and array with Bcl-xL of 0.02. C9orf84: the SPOT signal as a fraction of Bim BH3's signal on the same receptor and array in the test with Mcl-1 [3] is 0.02.

Take CYP2A13: the SPOT signal as a fraction of Bim BH3's signal on the same receptor and array with Mcl-1 [3] was 0.04 and 0.05; in the test with Bcl-xL it was 0.06 and 0.07; with Bfl-1 [1] it was 0.04. Substance EHMT1 registered an SPOT signal as a fraction of Bim BH3's signal on the same receptor and array with Bcl-xL of 0.04. For the substance ARPC5L, the SPOT signal as a fraction of Bim BH3's signal on the same receptor and array with Bcl-xL is 0.03.

Regarding ARPC5, the SPOT signal as a fraction of Bim BH3's signal on the same receptor and array with Bcl-xL came to 0.03. In the case of TAF6, in the test with Mcl-1 [3], the SPOT signal as a fraction of Bim BH3's signal on the same receptor and array stood at 0.03. For the substance PSMB1, the SPOT signal as a fraction of Bim BH3's signal on the same receptor and array with Mcl-1 [3] and in the test with Bcl-xL was 0.02 each time. For the substance CHAF1B, the SPOT signal as a fraction of Bim BH3's signal on the same receptor and array in the test with Mcl-1 [3] and in the test with Bcl-xL was 0.02 each time. By Kd is commonly meant a measure of binding affinity in units of concentration. As for “Bcl-2 (from UniProt P10415 1-239) (natural protein)”, the Kd in test [4] was below 0.03 µM.

Regarding HRK, the SPOT signal as a fraction of Bim BH3's signal on the same receptor and array with Bcl-xL was 0.56 and 0.38; with Bfl-1 [1], 0.23 and 0.32. As for GRIN2D, the SPOT signal as a fraction of Bim BH3's signal on the same receptor and array in the test with Mcl-1 [3] came to 0.06. EIF2C1 had an SPOT signal as a fraction of Bim BH3's signal on the same receptor and array with Bcl-xL of 0.02. As for SYN1, the SPOT signal as a fraction of Bim BH3's signal on the same receptor and array is 0.03 and 0.04 with Mcl-1 [3]; 0.1 in the test with Bcl-xL; 0.04 with Bfl-1 [1].

Take “Bcl-xL (from UniProt Q07817-1 1-233) (natural protein)”: in test [4], the equilibrium dissociation constant (Kd) is below 0.03 µM. This substance also returned a percent of the Bim BH3 SPOT signal in test [5] of 11%. As for TRIO, the SPOT signal as a fraction of Bim BH3's signal on the same receptor and array in the test with Mcl-1 [3] is 0.04; with Bcl-xL, 0.06; with Bfl-1 [1], 0.04 and 0.05. As for RPL29, the SPOT signal as a fraction of Bim BH3's signal on the same receptor and array with Bcl-xL is 0.72 and 0.7. In turn, MYO3A returned an SPOT signal as a fraction of Bim BH3's signal on the same receptor and array with Mcl-1 [3] of 0.13. “Bad BH3 peptide BH3 (from UniProt Q92934)”: the Kd in the test with Mcl-1 [6] and in the test with Bfl-1 [7] was above 2.5 µM in each case. On to PACSIN2, for which, in the test with Bcl-xL, the SPOT signal as a fraction of Bim BH3's signal on the same receptor and array came to 0.24. As to ATP2B1, the figures for the SPOT signal as a fraction of Bim BH3's signal on the same receptor and array in the test with Mcl-1 [3] and in the test with Bcl-xL were 0.01 and 0.02, respectively. On to TSC2, for which the SPOT signal as a fraction of Bim BH3's signal on the same receptor and array is 0.06 in the test with Mcl-1 [3]; 0.15 in the test with Bcl-xL; 0.03 with Bcl-w; 0.03 with Bfl-1 [1]; 0.01 in the test with Bcl-2 [2]. For EIF2C3, the SPOT signal as a fraction of Bim BH3's signal on the same receptor and array with Bcl-xL worked out at 0.03. “Mcl-1 (from UniProt Q07820 1-350) (natural protein)”: the dissociation constant Kd in test [4] is below 0.03 µM. In the case of MRPL41 BH3-like peptide, in the test with Bcl-2 [8], the dissociation constant Kd stood at 0.19 µM.
